Consider 18 sequences from the DeepSol protein solubility set.

The nature of this series: soluble on expression in E. coli; label from the status in PepcDB or PDB records.
Take “MPVNNENLTSVLDARPFELSEEQKSPLFKANLLAELVHHYQCNEMYRKFCQKNKFDPLVFDGEVADIPPIPVHIFKAIGHKLSSVSDDTIKAKLQSSATSGVPSTILLDKVTARRQTRAMARVMQEVLGPKRRPFCIMDIDPTSPNATNLGARIAAVKGYLNFASTSKYFIDADSPSAPLEFLEQKFVEHLNSLASEEPLIIFGFTFVLYHTVFKTLKDKGISFQLPKGSQVIHIGGWKKLESEKVDKITFNRDIASVLGISPDDVVDIYGFTEQMGLNYPDCKAGWKHIHAYSDVIIRDESNLEVCGPGKVGLLEFVSPLPHSYPGNVVLTDDLGVIEESLCECGKAGKRFKVIGRAKKAEVRGCGDVMSEKLTKKPSYKPLSQQEERLTIYHSPIFLEHHHHHH”: the “soluble on expression in E. coli” value is recorded as “not soluble”. On to “MGHHHHHHSHMGNDKRSQIFTLSRYAGILRRCLKENAMSAQKPGLHPRNRHHSRYDLATLCQVNPELRQFLTLTPAGEQSVDFANPLAVKALNKALLAHFYAVANWDIPDGFLCPPVPGRADYIHHLADLLAEASGTIPANASILDIGVGANCIYPLIGVHEYGWRFTGSETSSQALSSAQAIISSNPGLNRAIRLRRQKESGAIFNGIIHKNEQYDATLCNPPFHDSAAAARAGSERKRRNLGLNKDDALNFGGQQQELWCEGGEVTFIKKMIEESKGFAKQVMWFTSLVSRGENLPPLYRALTDVGAVKVVKKEMAQGQKQSRFIAWTFMNDEQRRRFVNRQR”, for which the “soluble on expression in E. coli” value is recorded as “soluble”.

On to “MGSDKIHHHHHHMSSKRLVIVGGGITGLAAAYYAERAFPDLNITLLEAGERLGGKVATYREDGFTIERGPDSYVARKHILTDLIEAIGLGEKLVRNNTSQAFILDTGGLHPIPKGAVMGIPTDLDLFRQTTLLTEEEKQEVADLLLHPSDSLRIPEQDIPLGEYLRPRLGDALVEKLIEPLLSGIYAGNIDQMSTFATYPQFVANEQKAGSLFEGMRLMRPLDQLPQTPQTTIKATGQFLSLETGLESLIERLEEVLERSEIRLETPLLAISREDGRYRLKTDHGPEYADYVLLTIPHPQVVQLLPDAHLPELEQLTTHSTATVTMIFDQQQSLPIEGTGFVVNRRAPYSITACTAIDQKWNHSAPDHTVLRAFVGRPGNDHLVHESDEVLQQAVLQDLEKICGRTLEPKQVIISRLMDGLPAYTVGHADRIQRVREEVLAQYPGIYLAGLAYDGVGLPDCVASAKTMIESIELEQSHTDESVNET”, for which the “soluble on expression in E. coli” value is reported as “not soluble”.

Turning to “MRDWVIPPISCPENEKGEFPKNLVQIKSNRDKETKVFYSITGQGADKPPVGVFIIERETGWLKVTQPLDREAIAKYILYSHAVSSNGEAVEDPMEIVITVTDQNDNRPEFTQEVFEGSVAEGAVPGTSVMKVSATDADDDVNTYNAAIAYTIVSQDPELPHKNMFTVNRDTGVISVLTSGLDRESYPTYTLVVQAADLQGEGLSTTAKAVITVKDINDNAPVFNPS”, the “soluble on expression in E. coli” value is recorded as “soluble”. Consider “MGSSHHHHHHSSGLVPRGSHMASMGRIESAFDLGFIRGMTFGFVGQHGTWGTDEARASMRALAEQPFNWVTLAFAGLMEHPGDPAIAYGPPVTVSDDEIASMAELAHALGLKVCLKPTVNCRDGTWRGEIRFEKEHGPDLESWEAWFGSYSDMMAHYAHVAKRTGCEMFCVGCEMTTAEPHEAMWRETIARVRTEYDGLVTYNCNHGREEHVRFWDAVDLISSSAYYPIDRWRDRVPVLREVAEAHEKPLFFMEVGCPSRSGSGACPWDYRHPGAVCLDEQARFYEAMFAAMPDEPWFKGYMLWEWPWKLYPREAASEDGSYCIYGKPAEDVVARAFSAIANR”, for which the “soluble on expression in E. coli” value is given as “soluble”. For the sequence “MKDWQLPSHSGPYELRIEVQPKSHHRAHYETEGSRGAVKASAGGHPIVQLHGYLENEPLMLQLFIGTADDRLLRPHAFYQVHRITGKTVSTTSHEAILSNTKVLEIPLLPENSMRAVIDCAGILKLRNSDIELRKGETDIGRKNTRVRLVFRVHVPQPSGRTLSLQVASNPIECSQRS”, the “soluble on expression in E. coli” value is “soluble”.

As for “MQTIKNSLGQSHDYIKMFVKEGDTVVDATCGNGNDTAFLASLVGENGRVFGFDIQDKAIANTTKKLTDLNLIDRVTLIKDGHQNMDKYIDCPVKAVMFNLGYLPSGDHSISTRPETTIQALSKAMELLVTGGIITVVIYYGGDTGFEEKEKVLEFLKGVDQKKFIVQRTDFINQANCPPILVCIEKISLEHHHHHH”, the “soluble on expression in E. coli” value is “not soluble”. Turning to “MGSDKIHHHHHHMGYSFVHPTGVTLYNPEKAFNGYTLMSIRELGAGLIDMNGNVVRLWKDLHGFPNKLLPGGYVIGSLGIRDPAYGYQDQTDLVQVDWEGNVVWKFNRLEYIEDPDNKPQWMVRQHHDYQRDGNPVGYYIPGMECRTDGGNTLILCHENLFNTKISEKRLLDDCFIEVDWEGNILWSWRASDHFEEMNFSDAAKNAMYRNPNMLENGGGMGDWLHINSMSYLGPNQWYDAGDERFHPENIIWDGREANISAIIDKKSGVIVWQMGPDFSATKELRRIGQIIGQHHVHMIPKGLPGAGNILIFDNGSWGGYGTPSNVSKDGIKADHADRSRVIELNPVTMEVVWQLTASELGYKPAGIFDYRFYSPLTSSAQRLPNGNTLITEGTGFRVFEVTADHEVVWEFWSPFTNAVAPTVYRTYRYPYSYVPHLAKPQETPIPRLDIKTFRVPGAAAGQLANQIKVAGTTGYGDKQELCVSFGEEL”, the “soluble on expression in E. coli” value was “not soluble”. The value for “MGKYFGTDGVRGEANVELTPELAFKLGRFGGYVLSQHETERPKVFVARDTRISGEMLESALIAGLLSVGIEVYKLGVLATPGVSYLVRTEKASAGVMISASHNPALDNGIKFFGNDGFKLADDQELEIEALLDAPEDTLPRPSAEGLGTLVDYPEGLRKYEKFLVTTGTDLSGMTVALDTANGAASVSARDVFLDLNAEIAVIGEKPNGLNINDGVGSTRPEQLQELVKETGADLGLAFDGDSDRLIAVDETGEIVDGDRIMFIIGKYLSEKGLLAHNTIVTTVMSNLGFHKALDKQGINKAITAVGDRYVVEEMRSSGYNLGGEQSGHVIIMDYNTTGDGQLTAIQLAKVMKETGKSLSELAAEVTIYPQKLVNIRVENSMKERAMEVPAIANIIAKMEDEMAGNGRILVRPSGTEPLLRVMAEAPTDAEVDYYVDTIADVVRTEIGCDN” was “not soluble”.

In the case of “MGSDKIHHHHHHAVSAEEAKELGHKLTEFGAEKAGNADGSIPPYTGGVKDLAIPADFKPGSGHYPDPFKDEKPLVSITKANEAQYAEFLMPGTKALLERLPGFRIDVYKTHRTMAYPDWVLKNTVGCARTAKLVGSVTGDGVEGAFACIPFPIPKNGYEVMWNQNLRYQGVRTDFRFRTILIDESGHKTLMGDNETQFIYQYYDRNGSKLPDNFFRTGFTRFYGPPSEVGMMTLAKYSINDGTDDDTTWIYMPGQRRVRVAPEYKYDTPMAAIGGTLLFDEVGGFQGRMDRFDFKLVGKKEMFVPYNNYRAYNSSDLVGDKYANPDDVRWEKHRVWVVEATLKPGERNIYSHRTYYIDEDTWLIVGYEAYDQSNALYRAGYTLDIVPYDKPRVGQPNAIMYDLTKGNYSVTADQGTPSQHMIPFDDLPNMGNYNTQALLNAGVR”, the “soluble on expression in E. coli” value is “not soluble”.

For the sequence “MVNTLEGLESTRNLILKENPMRRAAELVARLSADEVTMRAAKYELIKFNRAFQNFMLVLDENIEEILMSNDNSTRIQLKKLPEFPSFSDSFMQEYEKALLNGAEKLKASTSSEKGSIPSVSFSSSISSSSAELSDARCLICLDDVISTEKTIKCNSCRRRFHLDCASQWFKEKSVCPACNRGMLDPTEFPSL”, the “soluble on expression in E. coli” value was “not soluble”.

For the sequence “MGSDKIHHHHHHMAVVCRRITASSRTYSLSALTRCLQEEAAAIAVAAERLSSSQVEKALVLLERCSDQRAKLVITGVGKSGIVARKIAATFSSIGLMALYLNPLDAMHGDLGVVAQEDVCLLLSNSGETAELLEVLPHLKRRGTARIALVGKPDSSLARGSDVVLEASVDREVCPLNLAPTASTAVAMAIGDALAAIWMERRNISPADFAFNHPAGSLGKQLTLTASDLMVPVEKVQPLQPNTSLQEVICKLTQDGIGSGWVEDPSTAGLLLGLITDGDLRRALRDHSAENWASLSAAELMTADPITVDADLLAVEAIKQMECNRRKPISVLPVVGPDSSGNLLLGLLRLHDLIQAGLT”, the “soluble on expression in E. coli” value is “not soluble”.

Consider “MAEKTVYRVDGLSCTNCAAKFERNVKEIEGVTEAIVNFGASKITVTGEASIQQVEQAGAFEHLKIIPEKEA”, for which the “soluble on expression in E. coli” value is on record as “soluble”.

“MAYTIGVDFGTLSGRAVLVHVQTGEELAAAVKEYRHAVIDTVLPKTGQKLPRDWALQHPADYLEVLETTIPSLLEQTGVDPKDIIGIGIDFTACTILPIDSSGQPLCMLPEYEEEPHSYVKLWKHHAAQKHADRLNQIAEEEGEAFLQRYGGKISSEWMIPKVMQIAEEAPHIYEAADRIIEAADWIVYQLCGSLKRSNCTAGYKAMWSEKAGYPSDDFFEKLNPSMKTITKDKLSGSIHSVGEKAGSLTEKMAKLTGLLPGTAVAVANVDAHVSVPAVGITEPGKMLMIMGTSTCHVLLGEEVHIVPGMCGVVDNGILPGYAGYEAGQSCVGDHFDWFVKTCVPPAYQEEAKEKNIGVHELLSEKANHQAPGESGLLALDWWNGNRSTLVDADLTGMLLGMTLLTKPEEIYRALVEATAYGTRMIIETFKESGVPIEELFAAGGIAEKNPFVMQIYADVTNMDIKISGSPQAPALGSAIFGALAAGKEKGGYDDIKKAAANMGKLKDITYTPNAENAAVYEKLYAEYKELVHYFGKENHVMKRLKTIKNLQFSSAAKK”: the “soluble on expression in E. coli” value was “soluble”. “MEINQKREEEDDDEMEWRRDGVKRDSNDFSNYCRQRSLSSDATIMSRQFFVYLIFHVLIDNVIARAPFTRDRPRGLGLLQLPTGMTDERSGPFFPGLYIAGDKAGQKPQTVPDVSLPGQTASFTGRSAFNPFTHMVSAVYTEDLVDAWGAGFAVNGVNNHGLNVRKNFDAFADAPLSSSDGMYQPFLSAASIGSEYDFSKIREVSGNFNLPIPGVNELFDFDGRFMVKGGGNGILNSAMEFPLTLSDPNERAPYTFKYLNYMADRHMHYGHVVPNVNLFVVGKDKIMERLMQNRLNPTMVG”: the “soluble on expression in E. coli” value is on record as “not soluble”. Take “MGSDKIHHHHHHENLYFQGMYPDLVHLGGADKYFEEILEIVNKIKLFGDFSNEEVRYLCSYMQCYAAPRDCQLLTEGDPGDYLLLILTGEVNVIKDIPNKGIQTIAKVGAGAIIGEMSMIDGMPRSASCVASLPTDFAVLSRDALYQLLANMPKLGNKVLIRLLQLLTARFRESYDRILPKTLGELI”: the “soluble on expression in E. coli” value is “soluble”. The value for “MGRIISSYIFPHPPLIVPEIGKGDEKGAIKTIEACEKAAEQIRKEKPSTIILTTSHAPLFEDYIFINDHKTLKGNFSRFGARKVELGFENNLKMVESIIEFAKKEGFDAGGISEGIGRRYGISGELDHGALVPLYYISRVYSDFKLVHVAMSTLTLEEHYKFGMCIGEAVRNSDEDVVFVASGDLAHRLTSDGPYGYNKHAPEFDELLVKSIEKDDIDRILDIDDKLRDEAAECGLRSFVIMLGALDGYSVVPEVYSYEGPFGVGYMVARIGVGAMDSSRRIIENRRNKRKKSTDPYVSLAKRALEAYVTEGRVLDDYSGLPEEMLNSRAGTFVSIKKKGELRGCIGTIGPTRKNIASEIVHNAISAGTSDPRFYPVKPYELDELEYSVDVLMEPEEINSMDELDVVKYGVIVRAGRRTGLLLPNLENVNTVEQQVSIALQKAGISPNEKYTMERFEVIRHK” was “not soluble”. On to “MGSDKIHHHHHHMVQLIKKYEDLLCLLDELIKNESTFRWDEFYLERERDVPFFVLAPDEQLVEYVCTGLIESGKVLELGCGPGRNAIYLAENHFEVDVVDLSQKAIDWAMDRANERKASIRFIRENIFNLNVNKASYDLVYDSGCFHHIPPHRRMDYIHLVTTALKPGGHFGLTCFIENGPLGGAAISDLDVYRQQSLQGGLGFTEQKLIQIFDDFAVIEIRKMKEYPNDSSRFGVNGLLTALFQKKKVEKVK”, for which the “soluble on expression in E. coli” value is listed as “not soluble”.
